Assay results as given in patent publication US20250084158A1 (ABL BIO, published 2025).

Columns and labels:
human CLL-1 on cells [1] = biological target: T1, human CLL-1 on cells (human, UniProt Q5QGZ9 1-265); experiment: cell-based or functional assay
T1 sequence (looked up): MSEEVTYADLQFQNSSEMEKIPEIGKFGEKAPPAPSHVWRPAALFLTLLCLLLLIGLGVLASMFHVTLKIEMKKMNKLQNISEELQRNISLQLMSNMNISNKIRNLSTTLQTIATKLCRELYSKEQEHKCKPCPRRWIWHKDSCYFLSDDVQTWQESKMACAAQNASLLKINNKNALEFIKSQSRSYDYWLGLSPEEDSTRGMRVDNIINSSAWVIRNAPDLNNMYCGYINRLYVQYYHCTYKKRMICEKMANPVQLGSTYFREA

human CLL-1 on cells [2] = biological target: T1, human CLL-1 on cells; experiment: cell-based or functional assay; remark: listed apart in the source
human CLL-1 on cells [3] = biological target: T1, human CLL-1 on cells; experiment: FACS (PE-anti-human IgG), U937 cells
Method: (§1) To evaluate the tumor antigen binding property of the bispecific antibody of Example 3, the binding ability of CLL1 targeting portions of 33C2/CD3-R2 and 33C2/CD3-R3 to CLL1 expressed in mammalian cells were analyzed by using FACS.
(§2) Briefly, CLL1 positive cells (U937 and HL60) were incubated with 33C2/CD3-R2 and 33C2/CD3-R3 antibodies. After washing with a FACS buffer (1% BSA in PBS), the PE-anti-human IgG antibodies were added to each well and incubated at 4° C. for 60 min. The MFI (Median Fluorescence Intensity) of PE (phycoerythrin) was evaluated by FACS Calibur. BsAb mock/CD3, which has an anti-CD3 antigen-binding fragment at one arm, and no antigen-binding fragment at another arm, was used as a control group.

human CLL-1 on cells [4] = biological target: T1, human CLL-1 on cells; experiment: FACS (PE-anti-human IgG), HL-60 cells
Method: as §1, §2

human CLL-1 on cells [5] = biological target: T1, human CLL-1 on cells; experiment: cell-based or functional assay; remark: listed apart in the source
human CLL-1 on cells [6] = biological target: T1, human CLL-1 on cells; experiment: cell-based or functional assay; remark: listed apart in the source

B1: 33C2/CD3-R2 (bispecific antibody, human IgG1, kappa, N297A)
heavy 1: not shown
heavy 2: QVQLVQSGAEVKKPGASVKVSCKASGYSFTGYAMNWVRQAPGQRLEWIGLINPYNGGAMYNQKFKGRATLTVDTSASTAYMELSSLRSEDTAVYYCARDYRYEGHLDYWGQGTLVTVSSASTKGPSVFPLAPSSKSTSGGTAALGCLVKDYFPEPVTVSWNSGALTSGVHTFPAVLQSSGLYSLSSVVTVPSSSLGTQTYICNVNHKPSNTKVDKKVEPKSCDKTHTCPPCPAPELLGGPSVFLFPPKPKDTLMISRTPEVTCVVVDVSHEDPEVKFNWYVDGVEVHNAKTKPREEQYASTYRVVSVLTVLHQDWLNGKEYKCKVSNKALPAPIEKTISKAKGQPREPQVCTLPPSREEMTKNQVSLSCAVKGFYPSDIAVEWESNGQPENNYKTTPPVLDSDGSFFLVSKLTVDKSRWQQGNVFSCSVMHEALHNHYTQKSLSLSPGK
light 1: EIVLTQSPATLSLSPGERATLSCSATSSVSYMHWYQQKPGQAPRRWIYDTSKLASGIPARFSGSGSGTSYTLTISSLEPEDFAVYYCQQWSSDSPTFGQGTKLEIKRTVAAPSVFIFPPSDEQLKSGTASVVCLLNNFYPREAKVQWKVDNALQSGNSQESVTEQDSKDSTYSLSSTLTLSKADYEKHKVYACEVTHQGLSSPVTKSFNRGEC
light 2: DIVMTQSPDSLAVSLGERATINCKSSQSLLNSRTRKNYLAWYQQKPGQPPKLLIYWASTRQSGVPDRFSGSGSGTDFTLTISSLQAEDVAVYYCTQSHTLRTFGGGTKVEIKPDIQNPDPAVYQLRDSKSSDKSVCLFTDFDSQTQVSQSKDSDVYITDKCVLDMRSMDFKSNSAVAWSQKSDFACANAFQNSIIPEDTFFPSPESS
notes: WuXiBody format, 2+1: Heavy Chain-1 = CLL1 Fab heavy, linker, CD3 heavy (TCR constant region), Fc knob; Heavy Chain-2 = CLL1 Fab heavy, Fc hole; Two CLL1 light chains follow from the two CLL1 Fab heavy parts; also called anti-CLL-1/anti-CD3 bispecific antibody with (G4S)2 linker
Human CLL-1 on cells [1]
  specific lysis of HL-60, PBMC donor ABL06, EC50: 4.42 pM
  specific lysis of HL-60, PBMC donor ABL09, EC50: 1.27 pM
  specific lysis of HL-60, PBMC donor ABL10, EC50: 0.86 pM
  specific lysis of HL-60, PBMC donor ABL15, EC50: 3.16 pM
  specific lysis of HL-60, PBMC donor ABL16, EC50: 5.14 pM
  specific lysis of HL-60, PBMC donor ABL17, EC50: 5.85 pM
  specific lysis of HL-60, PBMC donor ABL18, EC50: 3.97 pM
  specific lysis of HL-60, PBMC donor ABL19, EC50: 9.09 pM
  specific lysis of U937, PBMC donor ABL06, EC50: 0.54 pM
  specific lysis of U937, PBMC donor ABL09, EC50: 0.13 pM
  specific lysis of U937, PBMC donor ABL10, EC50: 0.05 pM
  specific lysis of U937, PBMC donor ABL15, EC50: 0.16 pM
  specific lysis of U937, PBMC donor ABL16, EC50: 0.05 pM
  specific lysis of U937, PBMC donor ABL17, EC50: 1.1 pM
  specific lysis of U937, PBMC donor ABL18, EC50: 1.63 pM
  specific lysis of U937, PBMC donor ABL19, EC50: 0.32 pM
Human CLL-1 on cells [2]
  CD25 on CD4 T cells, U937 targets, EC50: 0.39 pM
  CD25 on CD8 T cells, U937 targets, EC50: 0.3 pM
  CD69 on CD4 T cells, U937 targets, EC50: 0.21 pM
  CD69 on CD8 T cells, U937 targets, EC50: 0.14 pM
  U937 cell lysis, EC50: 0.05 pM
Human CLL-1 on cells [3]
  EC50: 0.23 nM
Human CLL-1 on cells [4]
  EC50: 0.09 nM
Human CLL-1 on cells [5]
  CD25 on CD4 T cells, HL60 targets, EC50: 1.15 pM
  CD25 on CD8 T cells, HL60 targets, EC50: 1.09 pM
  CD69 on CD4 T cells, HL60 targets, EC50: 0.54 pM
  CD69 on CD8 T cells, HL60 targets, EC50: 0.36 pM
  U937 cell lysis (so in the source); Table 21 is the HL60 table by paragraph 356), EC50: 0.86 pM
Human CLL-1 on cells [6]
  T-cell activation (NFAT reporter effector cells) with HL-60, EC50: 0.03 nM
  T-cell activation (NFAT reporter effector cells) with U937, EC50: 0.016 nM
